The text below walks through data of US20250115678A1 (AstraZeneca / MedImmune, published 2025).

What is called EC50 (read off the curve) is the midpoint of the concentration-response curve. A word on the Kd: it is the free concentration of one partner at which half of the binding sites on the other are occupied at equilibrium, for simple one-to-one binding. By koff is commonly meant the first-order rate constant of dissociation. By kon is commonly meant the rate constant with which the complex forms. As a reminder, the EC50 is the concentration at which the effect is half-maximal.

In test [1] the target is T1, LRRC15 on LRRC15pos tumour cell lines (Saos-2 WT, RPMI-7951 WT) (UniProt Q8TF66 22-581, limits assumed).
T1 construct: whole, on cells; also called leucine rich repeat containing 15
T1 sequence (looked up): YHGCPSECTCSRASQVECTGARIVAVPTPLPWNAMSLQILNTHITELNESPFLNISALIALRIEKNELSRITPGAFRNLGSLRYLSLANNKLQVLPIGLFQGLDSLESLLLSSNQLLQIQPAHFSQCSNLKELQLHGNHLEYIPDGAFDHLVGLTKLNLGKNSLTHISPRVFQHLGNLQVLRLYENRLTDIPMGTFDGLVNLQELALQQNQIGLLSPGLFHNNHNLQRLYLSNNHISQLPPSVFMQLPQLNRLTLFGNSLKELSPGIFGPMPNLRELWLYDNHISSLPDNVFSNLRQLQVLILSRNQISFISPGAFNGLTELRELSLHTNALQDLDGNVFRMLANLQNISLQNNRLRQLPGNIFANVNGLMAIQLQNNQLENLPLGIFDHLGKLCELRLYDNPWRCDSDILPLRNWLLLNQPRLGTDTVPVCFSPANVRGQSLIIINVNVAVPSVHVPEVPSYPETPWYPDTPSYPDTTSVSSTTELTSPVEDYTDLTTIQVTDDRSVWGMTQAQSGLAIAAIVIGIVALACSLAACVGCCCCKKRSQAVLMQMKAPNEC
The test can be described thus: Flow cytometry on Saos-2 WT cells (LRRC15pos), detected with anti-human Fc Alexa Fluor 647 (MFI). For orientation: In flow cytometry, cells or beads pass a laser one at a time.

Test [2] has as its target T1, LRRC15 on LRRC15pos tumour cell lines …. Nature of the test: Flow cytometry on RPMI-7951 WT cells (LRRC15pos), detected with anti-human Fc Alexa Fluor 647 (MFI).
For test [3], the target named is recombinant cynomolgus monkey GPC3 (cynomolgus monkey, UniProt A0A2K5VK50 24-558). Nature of the test: SPR (Biacore), soluble antigen, mean ± SD of three experiments. Here is the method:
(§1) KD were calculated as the ratio of koff/kₒₙ from a non-linear fit of the data. Values are presented as mean±standard deviation (SD) of three experiments.

The target in test [4] is T2, soluble recombinant human GPC3 protein (human, UniProt P51654 25-559, biotinylated in the biolayer interferometry assay).
T2 construct: also called GPC3 human
T2 sequence (P51654 25-559 limits assumed): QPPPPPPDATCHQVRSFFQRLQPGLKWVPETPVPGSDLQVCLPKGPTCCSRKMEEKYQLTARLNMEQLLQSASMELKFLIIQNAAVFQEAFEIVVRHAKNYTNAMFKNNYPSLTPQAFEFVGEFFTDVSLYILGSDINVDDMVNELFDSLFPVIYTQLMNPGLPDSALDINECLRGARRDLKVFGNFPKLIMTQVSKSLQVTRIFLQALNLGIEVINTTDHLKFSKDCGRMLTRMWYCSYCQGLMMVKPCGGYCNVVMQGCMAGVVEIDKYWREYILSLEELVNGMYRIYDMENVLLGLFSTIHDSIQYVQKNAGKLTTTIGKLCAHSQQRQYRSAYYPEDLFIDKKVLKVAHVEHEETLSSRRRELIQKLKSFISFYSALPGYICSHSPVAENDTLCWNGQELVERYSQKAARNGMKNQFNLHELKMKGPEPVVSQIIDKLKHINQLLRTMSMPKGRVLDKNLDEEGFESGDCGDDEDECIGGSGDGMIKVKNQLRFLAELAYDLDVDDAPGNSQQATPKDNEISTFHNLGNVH
The test is described as above. Here is the method:
as §1

The target of test [5] is T3, recombinant cynomolgus monkey CD8ab (cynomolgus monkey).
T3 construct: Soluble form of the CD8 alpha/beta heterodimer; construct not described
The description is as above. Here is the method: as §1

Test [6] concerns the target T4, recombinant human CD8ab (human, UniProt P01732 22-182; P10966 22-170).
T4 construct: Soluble form of the CD8 alpha/beta heterodimer; construct not described
The description is as above. Here is the method: as §1

For test [7], the target named is T5, GPC3 on human hepatoma cells (Hep3B, HepG2) (human, UniProt P51654 25-554).
T5 construct: whole, on cells; also called Glypican-3
T5 sequence (P51654 25-554 limits assumed): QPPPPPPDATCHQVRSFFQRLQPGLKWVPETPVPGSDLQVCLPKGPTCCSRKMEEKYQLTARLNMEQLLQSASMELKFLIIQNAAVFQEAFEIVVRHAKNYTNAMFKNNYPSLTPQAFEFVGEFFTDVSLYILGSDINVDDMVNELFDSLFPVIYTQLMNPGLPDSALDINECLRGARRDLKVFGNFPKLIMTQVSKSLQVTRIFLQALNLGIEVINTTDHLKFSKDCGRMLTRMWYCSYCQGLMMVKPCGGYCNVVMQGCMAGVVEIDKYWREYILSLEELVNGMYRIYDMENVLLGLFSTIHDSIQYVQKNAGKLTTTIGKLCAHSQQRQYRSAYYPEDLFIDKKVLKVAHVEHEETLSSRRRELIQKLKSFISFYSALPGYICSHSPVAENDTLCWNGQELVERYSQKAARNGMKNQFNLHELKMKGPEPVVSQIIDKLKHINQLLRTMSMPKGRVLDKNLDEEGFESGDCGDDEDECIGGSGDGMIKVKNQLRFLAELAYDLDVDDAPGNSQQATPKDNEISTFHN
Nature of the test: flow cytometry on HepG2 cells, goat anti-human-IgG-APC; HepG2 cells. Here is the method:
(§2) Cell bindings were measured by flow cytometry.
as §2

For test [8], the target named is T5, GPC3 on human hepatoma cells (Hep3B, …). Nature of the test: flow cytometry on Hep3B cells, goat anti-human-IgG-APC; Hep3B cells. Here is the method:
as §2, §2

T4 sequence (P01732 22-182, chain 1 of 2): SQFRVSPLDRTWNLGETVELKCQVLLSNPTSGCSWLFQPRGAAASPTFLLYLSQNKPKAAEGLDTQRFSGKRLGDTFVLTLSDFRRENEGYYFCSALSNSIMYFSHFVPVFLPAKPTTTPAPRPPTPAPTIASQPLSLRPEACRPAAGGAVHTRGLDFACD
T4 sequence (P10966 22-170, chain 2 of 2): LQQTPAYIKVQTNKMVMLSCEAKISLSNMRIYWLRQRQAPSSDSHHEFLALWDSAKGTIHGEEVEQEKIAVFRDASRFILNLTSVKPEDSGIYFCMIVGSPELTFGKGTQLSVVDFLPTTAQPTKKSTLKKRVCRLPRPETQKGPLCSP

B1: LRC150016 (other)
light: DIQMTQSPSSLSASVGDRVTITCRASQDISNYLNWYQQKPGGAVKFLIYYTSRLHSGVPSRFSGSGSGTDYTLTISSLQPEDFATYFCQQGEALPWTFGGGTKVEIKRTVAAPSVFIFPPSDEQLKSGTASVVCLLNNFYPREAKVQWKVDNALQSGNSQESVTEQDSKDSTYSLSSTLTLSKADYEKHKVYACEVTHQGLSSPVTKSFNRGEC
heavy 1: EVQLVQSGAEVKKPGASVKVSCKASGYKFSSYWIEWVKQAPGQGLEWIGEILPGSDTTNYNEKFKDRATFTSDTSINTAYMELSRLRSDDTAVYYCARDRGNYRAWFGYWGQGTLVTVSSASTKGPSVFPLAPSSKSTSGGTAALGCLVKDYFPEPVTVSWNSGALTSGVHTFPAVLQSSGLYSLSSVVTVPSSSLGTQTYICNVNHKPSNTKVDKRVEPKSCDKTGGSEVQLVESGGGLVQPGGSLRLSCVASGDVHKINFLGWYRQAPGKEREKVAHISIGDQTDYADSAKGRFTISRDESKNMVYLQMNSLKPEDTAVYFCRAFSRIYPYDYWGQGTLVTVSSGGGGSTHTCPPCPAPPVAGPSVFLFPPKPKDTLMISRTPEVTCVVVDVKHEDPEVKFNWYVDGVEVHNAKTKPREEQYNSTYRVVSVLTVLHQDWLNGKEYKCKVSNKALPAPIEKTISKAKGQPREPQVCTLPPSREEMTKNQVSLSCAVKGFYPSDIAVEWESNGQPENNYKTTPPVLDSDGSFFLVSKLTVDKSRWQQGNVFSCSVMHEALHNRFTQKSLSLSPGK
heavy 2: EVQLVQSGAEVKKPGASVKVSCKASGYKFSSYWIEWVKQAPGQGLEWIGEILPGSDTTNYNEKFKDRATFTSDTSINTAYMELSRLRSDDTAVYYCARDRGNYRAWFGYWGQGTLVTVSSASTKGPSVFPLAPSSKSTSGGTAALGCLVKDYFPEPVTVSWNSGALTSGVHTFPAVLQSSGLYSLSSVVTVPSSSLGTQTYICNVNHKPSNTKVDKRVEPKSCDKTGGSEVQLLESGGGLVQPGGSLRLSCAASGFTFDDYAIGWFRQAPGKEREGVSCIRVSDGSTYYADSVKGRFTISRDNSKNTLYLQMNSLRAEDTAVYYCAAGSLYTCVQSIVWPARPYYDMDYWGQGTLVTVSSGGGGSTHTCPPCPAPPVAGPSVFLFPPKPKDTLMISRTPEVTCVVVDVKHEDPEVKFNWYVDGVEVHNAKTKPREEQYNSTYRVVSVLTVLHQDWLNGKEYKCKVSNKALPAPIEKTISKAKGQPREPQVYTLPPCREEMTKNQVSLWCLVKGFYPSDIAVEWESNGQPENNYKTTPPVLDSDGSFFLYSKLTVDKSRWQQGNVFSCSVMHEALHNHYTQKSLSLSPGK
notes: also called LRC150016 (LRRC15); LRC150016 engager
Turning to B1, the “EC50 (read off the curve)” value in test [1] is ~2 nM; in test [2], ~3 nM.

B2: LM1653 (other)
light: DVVMTQSPLSLPVTPGEPASISCRSSQSLVHSNRNTYLHWYLQKPGQSPQLLIYKVSNRFSGVPDRFSGSGSGTDFTLKISRVEAEDVGVYYCSQNTHVPPTFGQGTKLEIKRTVAAPSVFIFPPSDEQLKSGTASVVCLLNNFYPREAKVQWKVDNALQSGNSQESVTEQDSKDSTYSLSSTLTLSKADYEKHKVYACEVTHQGLSSPVTKSFNRGEC
heavy 1: QVQLVQSGAEVKKPGASVKVSCKASGYTFTDYEMHWVRQAPGQGLEWMGALDPKTGDTAYSQKFKGRVTLTADKSTSTAYMELSSLTSEDTAVYYCTRFYSYTYWGQGTLVTVSSASTKGPSVFPLAPSSKSTSGGTAALGCLVKDYFPEPVTVSWNSGALTSGVHTFPAVLQSSGLYSLSSVVTVPSSSLGTQTYICNVNHKPSNTKVDKRVEPKSCDKTGGSEVQLVESGGGLVQPGGSLRLSCVASGDVHKINFLGWYRQAPGKEREKVAHISIGDQTDYADSAKGRFTISRDESKNMVYLQMNSLKPEDTAVYFCRAFSRIYPYDYWGQGTLVTVSSGGGGSTHTCPPCPAPPVAGPSVFLFPPKPKDTLMISRTPEVTCVVVDVKHEDPEVKFNWYVDGVEVHNAKTKPREEQYNSTYRVVSVLTVLHQDWLNGKEYKCKVSNKALPAPIEKTISKAKGQPREPQVCTLPPSREEMTKNQVSLSCAVKGFYPSDIAVEWESNGQPENNYKTTPPVLDSDGSFFLVSKLTVDKSRWQQGNVFSCSVMHEALHNHYTQKSLSLSPGK
heavy 2: QVQLVQSGAEVKKPGASVKVSCKASGYTFTDYEMHWVRQAPGQGLEWMGALDPKTGDTAYSQKFKGRVTLTADKSTSTAYMELSSLTSEDTAVYYCTRFYSYTYWGQGTLVTVSSASTKGPSVFPLAPSSKSTSGGTAALGCLVKDYFPEPVTVSWNSGALTSGVHTFPAVLQSSGLYSLSSVVTVPSSSLGTQTYICNVNHKPSNTKVDKRVEPKSCDKTGGSEVQLLESGGGLVQPGGSLRLSCAASGFTFDDYAIGWFRQAPGKEREGVSCIRVSDGSTYYADSVKGRFTISRDNSKNTLYLQMNSLRAEDTAVYYCAAGSLYTCVQSIVWPARPYYDMDYWGQGTLVTVSSGGGGSTHTCPPCPAPPVAGPSVFLFPPKPKDTLMISRTPEVTCVVVDVKHEDPEVKFNWYVDGVEVHNAKTKPREEQYNSTYRVVSVLTVLHQDWLNGKEYKCKVSNKALPAPIEKTISKAKGQPREPQVYTLPPCREEMTKNQVSLWCLVKGFYPSDIAVEWESNGQPENNYKTTPPVLDSDGSFFLYSKLTVDKSRWQQGNVFSCSVMHEALHNHYTQKSLSLSPGK
notes: also called GPC3 TITAN; LM1653 (GPC3)
Turning to B2, the Kd in test [3] amounted to 0.82 nM; in test [4], 0.67 nM; in test [5] it was 62.4 nM; in test [6], 82.7 nM. Also, the koff came out at 0.000267 s⁻¹ in test [3], 0.000226 s⁻¹ in test [4], 0.0329 s⁻¹ in test [5] and 0.028 s⁻¹ in test [6]. Further, the on-rate constant (kon) is 326000 M⁻¹ s⁻¹ in test [3], 341000 M⁻¹ s⁻¹ in test [4], 527000 M⁻¹ s⁻¹ in test [5] and 340000 M⁻¹ s⁻¹ in test [6]. In addition, the results for the concentration for a half-maximal effect (EC50) in test [7] and in test [8] were 2 nM and 8 nM, respectively.
